Data as given in patent publication US20220213181A1 (Novartis, published 2022).

What was measured:
Assay in all cases: linear peptide array on glass (JPT)
P9 = biological target: T1, P9 (human)
T1 construct: linear 15-mer from the N-terminal coiled coil domain of human ANGPTL4
T1 peptide: QLGQGLREHAERTRS
Description: (§1) The ability of selected antibodies of invention, namely NEG276 and NEG318, to bind to linear 15-amino-acid peptides derived from the N-terminal coiled coil domain of human ANGPTL4 was tested. The peptides were immobilized on a glass surface, and the ability of NEG276 and NEG318 to bind to the immobilized peptides was evaluated using experimental methods optimized for linear peptide epitope mapping at JPT Peptide Technologies (Berlin, Germany).

P17 = biological target: T2, P17 (human)
T2 construct: linear 15-mer from the N-terminal coiled coil domain of human ANGPTL4; printed with Ser where ANGPTL4 has Cys
T2 peptide: SASGSASQGTEGSTD
Description: as §1

P11 = biological target: T3, P11 (human)
T3 construct: linear 15-mer from the N-terminal coiled coil domain of human ANGPTL4
T3 peptide: REHAERTRSQLSALE
Description: as §1

P24 = biological target: T4, P24 (human)
T4 construct: linear 15-mer from the N-terminal coiled coil domain of human ANGPTL4
T4 peptide: SRVDPEVLHSLQTQL
Description: as §1

P21 = biological target: T5, P21 (human)
T5 construct: linear 15-mer from the N-terminal coiled coil domain of human ANGPTL4
T5 peptide: STDLPLAPESRVDPE
Description: as §1

P42 = biological target: T6, P42 (human)
T6 construct: linear 15-mer from the N-terminal coiled coil domain of human ANGPTL4
T6 peptide: HKHLDHEVAKPARRK
Description: as §1

P18 = biological target: T7, P18 (human)
T7 construct: linear 15-mer from the N-terminal coiled coil domain of human ANGPTL4; printed with Ser where ANGPTL4 has Cys
T7 peptide: GSASQGTEGSTDLPL
Description: as §1

P32 = biological target: T8, P32 (human)
T8 construct: linear 15-mer from the N-terminal coiled coil domain of human ANGPTL4
T8 peptide: LFHKVAQQQRHLEKQ
Description: as §1

P22 = biological target: T9, P22 (human)
T9 construct: linear 15-mer from the N-terminal coiled coil domain of human ANGPTL4
T9 peptide: LPLAPESRVDPEVLH
Description: as §1

P5 = biological target: T10, P5 (human)
T10 construct: linear 15-mer from the N-terminal coiled coil domain of human ANGPTL4
T10 peptide: WDEMNVLAHGLLQLG
Description: as §1

P1 = biological target: T11, P1 (human)
T11 construct: linear 15-mer from the N-terminal coiled coil domain of human ANGPTL4
T11 peptide: GPVQSKSPRFASWDE
Description: as §1

P31 = biological target: T12, P31 (human)
T12 construct: linear 15-mer from the N-terminal coiled coil domain of human ANGPTL4
T12 peptide: IQQLFHKVAQQQRHL
Description: as §1

P43 = biological target: T13, P43 (human)
T13 construct: linear 15-mer from the N-terminal coiled coil domain of human ANGPTL4
T13 peptide: KHLDHEVAKPARRKR
Description: as §1

P30 = biological target: T14, P30 (human)
T14 construct: linear 15-mer from the N-terminal coiled coil domain of human ANGPTL4
T14 peptide: NSRIQQLFHKVAQQQ
Description: as §1

P3 = biological target: T15, P3 (human)
T15 construct: linear 15-mer from the N-terminal coiled coil domain of human ANGPTL4
T15 peptide: SPRFASWDEMNVLAH
Description: as §1

P35 = biological target: T16, P35 (human)
T16 construct: linear 15-mer from the N-terminal coiled coil domain of human ANGPTL4
T16 peptide: RHLEKQHLRIQHLQS
Description: as §1

P14 = biological target: T17, P14 (human)
T17 construct: linear 15-mer from the N-terminal coiled coil domain of human ANGPTL4; printed with Ser where ANGPTL4 has Cys
T17 peptide: QLSALERRLSASGSA
Description: as §1

P38 = biological target: T18, P38 (human)
T18 construct: linear 15-mer from the N-terminal coiled coil domain of human ANGPTL4
T18 peptide: IQHLQSQFGLLDHKH
Description: as §1

P13 = biological target: T19, P13 (human)
T19 construct: linear 15-mer from the N-terminal coiled coil domain of human ANGPTL4; printed with Ser where ANGPTL4 has Cys
T19 peptide: TRSQLSALERRLSAS
Description: as §1

P16 = biological target: T20, P16 (human)
T20 construct: linear 15-mer from the N-terminal coiled coil domain of human ANGPTL4; printed with Ser where ANGPTL4 has Cys
T20 peptide: RRLSASGSASQGTEG
Description: as §1

P39 = biological target: T21, P39 (human)
T21 construct: linear 15-mer from the N-terminal coiled coil domain of human ANGPTL4
T21 peptide: LQSQFGLLDHKHLDH
Description: as §1

P20 = biological target: T22, P20 (human)
T22 construct: linear 15-mer from the N-terminal coiled coil domain of human ANGPTL4
T22 peptide: TEGSTDLPLAPESRV
Description: as §1

P8 = biological target: T23, P8 (human)
T23 construct: linear 15-mer from the N-terminal coiled coil domain of human ANGPTL4
T23 peptide: GLLQLGQGLREHAER
Description: as §1

P36 = biological target: T24, P36 (human)
T24 construct: linear 15-mer from the N-terminal coiled coil domain of human ANGPTL4
T24 peptide: EKQHLRIQHLQSQFG
Description: as §1

P15 = biological target: T25, P15 (human)
T25 construct: linear 15-mer from the N-terminal coiled coil domain of human ANGPTL4; printed with Ser where ANGPTL4 has Cys
T25 peptide: ALERRLSASGSASQG
Description: as §1

P27 = biological target: T26, P27 (human)
T26 construct: linear 15-mer from the N-terminal coiled coil domain of human ANGPTL4
T26 peptide: SLQTQLKAQNSRIQQ
Description: as §1

P23 = biological target: T27, P23 (human)
T27 construct: linear 15-mer from the N-terminal coiled coil domain of human ANGPTL4
T27 peptide: APESRVDPEVLHSLQ
Description: as §1

P12 = biological target: T28, P12 (human)
T28 construct: linear 15-mer from the N-terminal coiled coil domain of human ANGPTL4
T28 peptide: AERTRSQLSALERRL
Description: as §1

P10 = biological target: T29, P10 (human)
T29 construct: linear 15-mer from the N-terminal coiled coil domain of human ANGPTL4
T29 peptide: QGLREHAERTRSQLS
Description: as §1

P34 = biological target: T30, P34 (human)
T30 construct: linear 15-mer from the N-terminal coiled coil domain of human ANGPTL4
T30 peptide: QQQRHLEKQHLRIQH
Description: as §1

P41 = biological target: T31, P41 (human)
T31 construct: linear 15-mer from the N-terminal coiled coil domain of human ANGPTL4
T31 peptide: LLDHKHLDHEVAKPA
Description: as §1

P29 = biological target: T32, P29 (human)
T32 construct: linear 15-mer from the N-terminal coiled coil domain of human ANGPTL4
T32 peptide: KAQNSRIQQLFHKVA
Description: as §1

P37 = biological target: T33, P37 (human)
T33 construct: linear 15-mer from the N-terminal coiled coil domain of human ANGPTL4
T33 peptide: HLRIQHLQSQFGLLD
Description: as §1

P4 = biological target: T34, P4 (human)
T34 construct: linear 15-mer from the N-terminal coiled coil domain of human ANGPTL4
T34 peptide: FASWDEMNVLAHGLL
Description: as §1

P2 = biological target: T35, P2 (human)
T35 construct: linear 15-mer from the N-terminal coiled coil domain of human ANGPTL4
T35 peptide: QSKSPRFASWDEMNV
Description: as §1

P19 = biological target: T36, P19 (human)
T36 construct: linear 15-mer from the N-terminal coiled coil domain of human ANGPTL4; printed with Ser where ANGPTL4 has Cys
T36 peptide: SQGTEGSTDLPLAPE
Description: as §1

P33 = biological target: T37, P33 (human)
T37 construct: linear 15-mer from the N-terminal coiled coil domain of human ANGPTL4
T37 peptide: KVAQQQRHLEKQHLR
Description: as §1

P26 = biological target: T38, P26 (human)
T38 construct: linear 15-mer from the N-terminal coiled coil domain of human ANGPTL4
T38 peptide: VLHSLQTQLKAQNSR
Description: as §1

P7 = biological target: T39, P7 (human)
T39 construct: linear 15-mer from the N-terminal coiled coil domain of human ANGPTL4
T39 peptide: LAHGLLQLGQGLREH
Description: as §1

Measured: binding result

B1: NEG318 (antibody, human IgG1, kappa, V domains shown)
VH: QVQLVQSGAEVKKPGASVKVSCKASGYTFTSFWITWVRQAPGQGLEWMGDIYPGGATTNYNEKLQGRVTLTVDTSTSTAYMELRSLRSDDTAVYYCARSPPQVGPFDYWGQGTLVTVSS
VL: DIQMTQSPSSLSASVGDRVTITCQASDYIYHWLAWYQQKPGKAPKLLISGASSLETGVPSRFSGSGSGKDYTFTISSLQPEDIATYYCQQYWSIPWTFGQGTKLEIKR
notes: humanized, hIgG1/kappa, parental antibody 14P18
no binding: P9 | P17 | P11 | P24 | P21 | P42 | P18 | P32 | P22 | P5 | P1 | P31 | P43 | P30 | P3 | P35 | P14 | P38 | P13 | P16 | P39 | P20 | P8 | P36 | P15 | P27 | P23 | P12 | P10 | P34 | P41 | P29 | P37 | P4 | P2 | P19 | P33 | P26 | P7

B2: NEG276 (antibody, human IgG1, kappa)
heavy: not shown
light: EIVMTQSPATLSVSPGERATLSCKASQDIGSNLNWLQQKPGQAPRRLIYAVSNRGPGIPARFSGSRSGSEYTLTISSLQSEDFAVYYCLQYASSPWTFGQGTKVEIKRTVAAPSVFIFPPSDEQLKSGTASVVCLLNNFYPREAKVQWKVDNALQSGNSQESVTEQDSKDSTYSLSSTLTLSKADYEKHKVYACEVTHQGLSSPVTKSFNRGEC
notes: humanized, hIgG1/kappa, parental antibody 19C16
no binding: P9 | P17 | P11 | P24 | P21 | P42 | P18 | P32 | P22 | P5 | P1 | P31 | P43 | P30 | P3 | P35 | P14 | P38 | P13 | P16 | P39 | P20 | P8 | P36 | P15 | P27 | P23 | P12 | P10 | P34 | P41 | P29 | P37 | P4 | P2 | P19 | P33 | P26 | P7
